In article PMC5282554, “The intervening domain from MeCP2 enhances the DNA affinity of the methyl binding domain and provides an independent DNA interaction site”:

B1: BDNF promoter IV 45 bp unmethylated (dsDNA)
DNA 1: GCCATGCCCTGGAACGGAACTCTCCTAATAAAAGATGTATCATTT
DNA 2: AAATGATACATCTTTTATTAGGAGAGTTCCGTTCCAGGGCATGGC
B2: BDNF promoter IV 45 bp mCpG (dsDNA)
DNA 1: B1 DNA 1
DNA 2: B1 DNA 2
modifications: 5-methylcytosine at C15 of strand 1 and C30 of strand 2 (symmetric mCpG)

Columns and labels:
Conditions in all cases: protein: recombinant; tags: His-tag removed (PreScission); blunt
MeCP2 NTD-MBD-ID [1] = target: T1, MeCP2 NTD-MBD-ID (UniProt P51608 1-206); assay: ITC; pH 7; ID site of two-site model; ITC: Tris 50 mM, pH 7, 20 °C (also 15 and 17.5 °C; Pipes or phosphate 50 mM, pH 7), no added NaCl unless stated; protein 3-5 uM in cell, dsDNA 50 uM titrant
MeCP2 NTD-MBD = MeCP2 NTD-MBD (UniProt P51608 1-162); assay: ITC; pH 7; ITC: Tris 50 mM, pH 7, 20 °C (also 15 and 17.5 °C; Pipes or phosphate 50 mM, pH 7), no added NaCl unless stated; protein 3-5 uM in cell, dsDNA 50 uM titrant
MeCP2 MBD = MeCP2 MBD (UniProt P51608 78-162); assay: as above
MeCP2 NTD-MBD-ID [2] = target: T1, MeCP2 NTD-MBD-ID; assay: ITC; pH 7; MBD site of two-site model; ITC: Tris 50 mM, pH 7, 20 °C (also 15 and 17.5 °C; Pipes or phosphate 50 mM, pH 7), no added NaCl unless stated; protein 3-5 uM in cell, dsDNA 50 uM titrant

Row | Binder | Kd (MeCP2 NTD-MBD-ID [1]) | Kd (MeCP2 NTD-MBD) | Kd (MeCP2 MBD) | Kd (MeCP2 NTD-MBD-ID [2])
1 | B1 | 250 nM | 210 nM | 450 nM | 1.9 nM
2 | B2 | 62 nM | 90 nM | 240 nM | 0.56 nM
